Results: the supplement of paper PMC11246515
± gives the standard deviation of the averaged measurements.

Test: total protein half-life in vivo (active degradation + dilution); higher = more stable protein
[1] = E. coli NCM3722 delta-clpP, growth: N-lim chemostat, doubling time 6 h
[2] = E. coli NCM3722 delta-hslV, growth: N-lim chemostat, doubling time 6 h
[3] = E. coli NCM3722 delta-lon, growth: N-lim chemostat, doubling time 6 h
[4] = E. coli NCM3722 delta-smpB, growth: N-lim chemostat, doubling time 6 h
[5] = wild type E. coli NCM3722, growth: C-lim chemostat, doubling time 3 h
[6] = wild type E. coli NCM3722, growth: C-lim chemostat, doubling time 6 h
[7] = wild type E. coli NCM3722, growth: C-lim chemostat, doubling time 12 h
[8] = wild type E. coli NCM3722, growth: N-lim chemostat, doubling time 6 h
[9] = wild type E. coli NCM3722, growth: N-lim chemostat, doubling time 12 h
[10] = wild type E. coli NCM3722, growth: P-lim chemostat, doubling time 6 h
[11] = wild type E. coli NCM3722, growth: P-lim chemostat, doubling time 12 h
[12] = E. coli NCM3722 delta-clpP delta-lon delta-hslV, growth: N-lim chemostat, doubling time 6 h

Sequence	total protein half-life in vivo [1] [h]	total protein half-life in vivo [2] [h]	total protein half-life in vivo [3] [h]	total protein half-life in vivo [4] [h]	total protein half-life in vivo [5] [h]	total protein half-life in vivo [6] [h]	total protein half-life in vivo [7] [h]	total protein half-life in vivo [8] [h]	total protein half-life in vivo [9] [h]	total protein half-life in vivo [10] [h]	total protein half-life in vivo [11] [h]	total protein half-life in vivo [12] [h]
MSIRIIPQDELGSSEKRTADMIPPLLFPRLKNLYNRRAERLRELAENNPLGDYLRFAALIAHAQEVVLYDHPLEMDLTARIKEASAQGKPPLDIHVLPRDKHWQKLLMALIAELKPEMSGPALAVIENLEKASTQELEDMASALFASDFSSVSSDKAPFIWAALSLYWAQMANLIPGKARAEYGEQRQYCPVCGSMPVSSMVQIGTTQGLRYLHCNLCETEWHVVRVKCSNCEQSGKLHYWSLDDEQAAIKAESCDDCDTYLKILYQEKDPKIEAVADDLASLVLDARMEQEGYARSSINPFLFPGEGE	4.49 ± 0.13	3.54 ± 0.26	4.36 ± 1.1	2.78 ± 0.7	1.81 ± 0.24	3.48 ± 0.15	6.07 ± 2.6	3.56 ± 0.28	4.72 ± 0.75	4.06 ± 0.14	7.84 ± 0.28	
MIEWIIRRSVANRFLVLMGALFLSIWGTWTIINTPVDALPDLSDVQVIIKTSYPGQAPQIVENQVTYPLTTTMLSVPGAKTVRGFSQFGDSYVYVIFEDGTDPYWARSRVLEYLNQVQGKLPAGVSAELGPDATGVGWIYEYALVDRSGKHDLADLRSLQDWFLKYELKTIPDVAEVASVGGVVKEYQVVIDPQRLAQYGISLAEVKSALDASNQEAGGSSIELAEAEYMVRASGYLQTLDDFNHIVLKASENGVPVYLRDVAKVQIGPEMRRGIAELNGEGEVAGGVVILRSGKNAREVIAAVKDKLETLKSSLPEGVEIVTTYDRSQLIDRAIDNLSGKLLEEFIVVAVVCALFLWHVRSALVAIISLPLGLCIAFIVMHFQGLNANIMSLGGIAIAVGAMVDAAIVMIENAHKRLEEWQHQHPDATLDNKTRWQVITDASVEVGPALFISLLIITLSFIPIFTLEGQEGRLFGPLAFTKTYAMAGAALLAIVVIPILMGYWIRGKIPPESSNPLNRFLIRVYHPLLLKVLHWPKTTLLVAALSVLTVLWPLNKVGGEFLPQINEGDLLYMPSTLPGISAAEAASMLQKTDKLIMSVPEVARVFGKTGKAETATDSAPLEMVETTIQLKPQEQWRPGMTMDKIIEELDNTVRLPGLANLWVPPIRNRIDMLSTGIKSPIGIKVSGTVLADIDAMAEQIEEVARTVPGVASALAERLEGGRYINVEINREKAARYGMTVADVQLFVTSAVGGAMVGETVEGIARYPINLRYPQSWRDSPQALRQLPILTPMKQQITLADVADIKVSTGPSMLKTENARPTSWIYIDARDRDMVSVVHDLQKAIAEKVQLKPGTSVAFSGQFELLERANHKLKLMVPMTLMIIFVLLYLAFRRVGEALLIISSVPFALVGGIWLLWWMGFHLSVATGTGFIALAGVAAEFGVVMLMYLRHAIEAVPSLNNPQTFSEQKLDEALYHGAVLRVRPKAMTVAVIIAGLLPILWGTGAGSEVMSRIAAPMIGGMITAPLLSLFIIPAAYKLMWLHRHRVRK			> 8	6.09		7.07	> 16	5.97 ± 0.71	12.6 ± 3.8	6.31 ± 0.89	12.7 ± 0.39	
MIEWQDLHHSELSVSQLYALLQLRCAVFVVEQNCPYQDIDGDDLTGDNRHILGWKNDELVAYARILKSDDDLEPVVIGRVIVSEALRGEKVGQQLMSKTLETCTHHWPDKPVYLGAQAHLQNFYQSFGFIPVTEVYEEDGIPHIGMAREVIQA [P0AEH3]		3.93 ± 1.4	3.58 ± 0.13	2.23 ± 0.14	2.35 ± 0.064	4.3 ± 0.27	7.04 ± 0.82	2.68 ± 0.086	3.85 ± 0.064	4.54 ± 0.38	9.98 ± 1.5	4.51 ± 0.43
MNKTQLIDVIAEKAELSKTQAKAALESTLAAITESLKEGDAVQLVGFGTFKVNHRAERTGRNPQTGKEIKIAAANVPAFVSGKALKDAVK [P0ACF0]	6.29 ± 0.51	5.45 ± 0.31	6.06 ± 0.22	5.39 ± 0.12	3.04 ± 0.19	5.55 ± 0.72	10 ± 0.23	5.15 ± 0.27	11.91 ± 0.1	4.73 ± 0.92	11.1 ± 1.5	7.47 ± 0.039
MTEIYEQAKHSLQGEDFSSFNYLFAVNKLLSNPVSYDLGRDLIVRALDSRERFSEHTTILKNMVRKSGLFPYLKKEFTSLTPDDLRVLELYRTPFSDGYVFHSMQFHIFDLLKSGQNVVLSAPTSMGKSAIVDSLLGMGTLKRLVLVVPTVALADETRRRLQERFGDRYQIIHHSSQVCHSDQAVYVLTQERVNERDDIVDIDLFVIDEFYKLAFRQLKSGDIDHQDERVIELNIALSKLLKVSRQFYLTGPFVNSIRGLEKLGYPHTFVSTDFNTVALDVKTFGIKANDDKAKLKALGEIAHACVDATIIYCKSPTVAGLVARELIRLGHGTPTENPHVDWVSEEFDADWDYTVALRNGIGLHFGALPRALQQYTADQFNAGKLRFLLCTSTIIEGVNTIAKNVVIYDNRDGTRSIDKFTHGNIKGRAGRMGVHFVGKIFCLEEIPEDNLNQEVDIPLGIQGIDTPINLLASVQPDHLSEFSQDRFDEVFINDRVSIDLVKKHSYFRVEQFEMLQSMFEMMDDNEFSSLVFHWTPATNFLKTFAKIIARLVPHTFSRNGVPVKPTDVMIAKLAGYLSAESYSEYLKNQIDYARQWISEGEKRTLSIALNNDLKLITNTFGYTLPKVLSLMEDVVKHHAVKRGIRSKVDYTHVKLAFESFHLPPGVNALEEIGIPIQTLHRLVDLLEFSDEADVDELSQYLRDTQDIWSRSIGYVDQMFIRRALGIRRH												6.27 ± 1.3
MCGIVGAIAQRDVAEILLEGLRRLEYRGYDSAGLAVVDAEGHMTRLRRLGKVQMLAQAAEEHPLHGGTGIAHTRWATHGEPSEVNAHPHVSEHIVVVHNGIIENHEPLREELKARGYTFVSETDTEVIAHLVNWELKQGGTLREAVLRAIPQLRGAYGTVIMDSRHPDTLLAARSGSPLVIGLGMGENFIASDQLALLPVTRRFIFLEEGDIAEITRRSVNIFDKTGAEVKRQDIESNLQYDAGDKGIYRHYMQKEIYEQPNAIKNTLTGRISHGQVDLSELGPNADELLSKVEHIQILACGTSYNSGMVSRYWFESLAGIPCDVEIASEFRYRKSAVRRNSLMITLSQSGETADTLAGLRLSKELGYLGSLAICNVPGSSLVRESDLALMTNAGTEIGVASTKAFTTQLTVLLMLVAKLSRLKGLDASIEHDIVHGLQALPSRIEQMLSQDKRIEALAEDFSDKHHALFLGRGDQYPIALEGALKLKEISYIHAEAYAAGELKHGPLALIDADMPVIVVAPNNELLEKLKSNIEEVRARGGQLYVFADQDAGFVSSDNMHIIEMPHVEEVIAPIFYTVPLQLLAYHVALIKGTDVDQPRNLAKSVTVE	5.07 ± 1.3	4 ± 0.11	4.01 ± 0.15	3.98 ± 0.33	3.14 ± 0.23	5.37 ± 0.3	9.64 ± 0.98	4.14 ± 0.067	6.35 ± 0.37	5.8 ± 0.14	11.3 ± 0.96	5.12 ± 0.77
MTEQQISRTQAWLESLRPKTLPLAFAAIIVGTALAWWQGHFDPLVALLALITAGLLQILSNLANDYGDAVKGSDKPDRIGPLRGMQKGVITQQEMKRALIITVVLICLSGLALVAVACHTLADFVGFLILGGLSIIAAITYTVGNRPYGYIGLGDISVLVFFGWLSVMGSWYLQAHTLIPALILPATACGLLATAVLNINNLRDINSDRENGKNTLVVRLGEVNARRYHACLLMGSLVCLALFNLFSLHSLWGWLFLLAAPLLVKQARYVMREMDPVAMRPMLERTVKGALLTNLLFVLGIFLSQWAA	5.652 ± 0.0067	6.01				6.18	12.6					
